According to patent publication US20220332795A1 (ARO BIOTHERAPEUTICS, published 2022):
Positions count from the first letter of the chain named. One block for each binder: values may come before it.

Assays:
CD71 apical domain [1] = biological target: T1, CD71 apical domain (UniProt P02786 189-383, limits assumed); assay: solution ELISA, signal ratio to HSA
T1 construct: domain: Apical domain

[2] = biological target: T2, recombinant biotinylated human CD71 extracellular domain (human, UniProt P02786 89-760, biotinylated); assay: solution ELISA, signal ratio to HSA
T2 construct: extracellular domain; also called hCD71; huCD71 ECD

CD71 apical domain [3] = biological target: T1, CD71 apical domain; assay: solution ELISA
[4] = biological target: T2, recombinant biotinylated human CD71 …; assay: solution ELISA

T2 sequence (P02786 other isoform, or with tags, fused parts or gaps): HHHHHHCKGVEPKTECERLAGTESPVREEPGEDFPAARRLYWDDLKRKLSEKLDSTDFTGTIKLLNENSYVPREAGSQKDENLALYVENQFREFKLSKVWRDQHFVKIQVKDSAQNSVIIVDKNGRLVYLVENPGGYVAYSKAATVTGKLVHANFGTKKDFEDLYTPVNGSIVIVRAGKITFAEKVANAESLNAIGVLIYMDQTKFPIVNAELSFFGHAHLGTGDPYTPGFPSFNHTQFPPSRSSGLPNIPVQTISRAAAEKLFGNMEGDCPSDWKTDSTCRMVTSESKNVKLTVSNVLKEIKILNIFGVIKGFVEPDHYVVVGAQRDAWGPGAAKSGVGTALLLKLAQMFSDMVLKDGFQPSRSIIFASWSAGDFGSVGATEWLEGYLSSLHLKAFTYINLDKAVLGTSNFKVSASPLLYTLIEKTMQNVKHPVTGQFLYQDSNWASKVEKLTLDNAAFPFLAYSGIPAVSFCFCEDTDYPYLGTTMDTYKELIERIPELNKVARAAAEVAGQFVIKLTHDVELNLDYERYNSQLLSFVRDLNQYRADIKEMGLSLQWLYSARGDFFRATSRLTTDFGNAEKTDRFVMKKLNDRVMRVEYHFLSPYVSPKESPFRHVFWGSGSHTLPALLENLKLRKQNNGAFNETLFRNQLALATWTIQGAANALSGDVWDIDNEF
T1 sequence (P02786 189-383 limits assumed): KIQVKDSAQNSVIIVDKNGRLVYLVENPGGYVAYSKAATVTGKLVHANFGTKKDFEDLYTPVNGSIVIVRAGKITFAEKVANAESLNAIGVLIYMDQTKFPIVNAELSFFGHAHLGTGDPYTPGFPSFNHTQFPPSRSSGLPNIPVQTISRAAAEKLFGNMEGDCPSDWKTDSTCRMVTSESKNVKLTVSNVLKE

apical domain:HSA (CD71 apical domain [1]): 337
hCD71:HSA [2]: 63.7
Apical domain, RLU (CD71 apical domain [3]): 5.72e+06 RLU
hCD71, RLU [4]: 1.08e+06 RLU
B1: SEQ ID NO 146 (designed binder)
chain: MLPAPKNLVVSRVTEDSARLSWTAPDAAFDSFYIAYAEPRPDGEAITLHVPGSERSYDLTGLKPGTEYSVLIHGVKGGLLSSPLSAIFTT
notes: FN3 domain

apical domain:HSA (CD71 apical domain [1]): 328
hCD71:HSA [2]: 147
Apical domain, RLU (CD71 apical domain [3]): 8.42e+06 RLU
hCD71, RLU [4]: 3.78e+06 RLU
B2: SEQ ID NO 164 (designed binder)
chain: B1 chain with T47I, H49R, S85V
notes: FN3 domain

apical domain:HSA (CD71 apical domain [1]): 219
hCD71:HSA [2]: 61.2
Apical domain, RLU (CD71 apical domain [3]): 6.12e+06 RLU
hCD71, RLU [4]: 1.71e+06 RLU
B3: SEQ ID NO 193 (designed binder)
chain: B1 chain with T47S, H49S, S85I, I87N
notes: FN3 domain

apical domain:HSA (CD71 apical domain [1]): 0.7
hCD71:HSA [2]: 23.2
Apical domain, RLU (CD71 apical domain [3]): 128000 RLU
hCD71, RLU [4]: 4.17e+06 RLU
B4: SEQ ID NO 167 (designed binder)
chain: B1 chain with Y33F, A35G, A37L, R40Q, D42P, T47I, H49G, S85H, I87Y, F88S
notes: FN3 domain

apical domain:HSA (CD71 apical domain [1]): 273
hCD71:HSA [2]: 39
Apical domain, RLU (CD71 apical domain [3]): 4.78e+06 RLU
hCD71, RLU [4]: 682000 RLU
B5: SEQ ID NO 194 (designed binder)
chain: B1 chain with T47A, H49L, F88V
notes: FN3 domain

apical domain:HSA (CD71 apical domain [1]): 366
hCD71:HSA [2]: 61.6
Apical domain, RLU (CD71 apical domain [3]): 3.88e+06 RLU
hCD71, RLU [4]: 653000 RLU
B6: SEQ ID NO 180 (designed binder)
chain: B1 chain with T47A, H49L, S85V, I87Q
notes: FN3 domain

apical domain:HSA (CD71 apical domain [1]): 359
hCD71:HSA [2]: 55.4
Apical domain, RLU (CD71 apical domain [3]): 4.96e+06 RLU
hCD71, RLU [4]: 764000 RLU
B7: SEQ ID NO 152 (designed binder)
chain: B1 chain with H49D, S85Y, I87F
notes: FN3 domain

apical domain:HSA (CD71 apical domain [1]): 296
hCD71:HSA [2]: 35.3
Apical domain, RLU (CD71 apical domain [3]): 5.48e+06 RLU
hCD71, RLU [4]: 653000 RLU
B8: SEQ ID NO 171 (designed binder)
chain: B1 chain with T47Q, H49W, S85D, I87Y
notes: FN3 domain

apical domain:HSA (CD71 apical domain [1]): 345
hCD71:HSA [2]: 14.4
Apical domain, RLU (CD71 apical domain [3]): 4.43e+06 RLU
hCD71, RLU [4]: 185000 RLU
B9: SEQ ID NO 159 (designed binder)
chain: B1 chain with T47Y, H49K, S85V, I87H
notes: FN3 domain

apical domain:HSA (CD71 apical domain [1]): 378
hCD71:HSA [2]: 203
Apical domain, RLU (CD71 apical domain [3]): 8.31e+06 RLU
hCD71, RLU [4]: 4.46e+06 RLU
B10: SEQ ID NO 160 (designed binder)
chain: B1 chain with T47V, H49T, S85L, I87Y
notes: FN3 domain

apical domain:HSA (CD71 apical domain [1]): 478
hCD71:HSA [2]: 204
Apical domain, RLU (CD71 apical domain [3]): 6.89e+06 RLU
hCD71, RLU [4]: 2.94e+06 RLU
B11: SEQ ID NO 147 (designed binder)
chain: B1 chain with T47V, H49E, S85D, I87H
notes: FN3 domain

apical domain:HSA (CD71 apical domain [1]): 186
hCD71:HSA [2]: 16
Apical domain, RLU (CD71 apical domain [3]): 3.96e+06 RLU
hCD71, RLU [4]: 339000 RLU
B12: SEQ ID NO 153 (designed binder)
chain: B1 chain with T47A
notes: FN3 domain

apical domain:HSA (CD71 apical domain [1]): 252
hCD71:HSA [2]: 127
Apical domain, RLU (CD71 apical domain [3]): 7.29e+06 RLU
hCD71, RLU [4]: 3.68e+06 RLU
B13: SEQ ID NO 179 (designed binder)
chain: B1 chain with Y33P, T47V, H49T, I87F
notes: FN3 domain

apical domain:HSA (CD71 apical domain [1]): 257
hCD71:HSA [2]: 45
Apical domain, RLU (CD71 apical domain [3]): 4.95e+06 RLU
hCD71, RLU [4]: 865000 RLU
B14: SEQ ID NO 178 (designed binder)
chain: B1 chain with T47Q, H49Q, F88V
notes: FN3 domain

apical domain:HSA (CD71 apical domain [1]): 235
hCD71:HSA [2]: 84.6
Apical domain, RLU (CD71 apical domain [3]): 5.93e+06 RLU
hCD71, RLU [4]: 2.13e+06 RLU
B15: SEQ ID NO 196 (designed binder)
chain: B1 chain with T47V, H49W, S85R, I87S
notes: FN3 domain

apical domain:HSA (CD71 apical domain [1]): 208
hCD71:HSA [2]: 16.4
Apical domain, RLU (CD71 apical domain [3]): 4.89e+06 RLU
hCD71, RLU [4]: 385000 RLU
B16: SEQ ID NO 190 (designed binder)
chain: B1 chain with T47S, H49D, S85E, I87S
notes: FN3 domain

apical domain:HSA (CD71 apical domain [1]): 144
hCD71:HSA [2]: 29.6
Apical domain, RLU (CD71 apical domain [3]): 6.78e+06 RLU
hCD71, RLU [4]: 1.4e+06 RLU
B17: SEQ ID NO 197 (designed binder)
chain: B1 chain with T47K, H49D, S85V, I87F
notes: FN3 domain

apical domain:HSA (CD71 apical domain [1]): 30.8
hCD71:HSA [2]: 12.7
Apical domain, RLU (CD71 apical domain [3]): 3.16e+06 RLU
hCD71, RLU [4]: 1.3e+06 RLU
B18: SEQ ID NO 150 (designed binder)
chain: B1 chain with W22R, T47V, H49I
notes: FN3 domain

apical domain:HSA (CD71 apical domain [1]): 195
hCD71:HSA [2]: 13.3
Apical domain, RLU (CD71 apical domain [3]): 5.24e+06 RLU
hCD71, RLU [4]: 358000 RLU
B19: SEQ ID NO 188 (designed binder)
chain: B1 chain with T47G, H49G, S85D, I87S
notes: FN3 domain

apical domain:HSA (CD71 apical domain [1]): 117
hCD71:HSA [2]: 19.6
Apical domain, RLU (CD71 apical domain [3]): 4.86e+06 RLU
hCD71, RLU [4]: 814000 RLU
B20: SEQ ID NO 170 (designed binder)
chain: B1 chain with T47H, H49L, S85L, I87H
notes: FN3 domain

apical domain:HSA (CD71 apical domain [1]): 248
hCD71:HSA [2]: 21.1
Apical domain, RLU (CD71 apical domain [3]): 3.41e+06 RLU
hCD71, RLU [4]: 290000 RLU
B21: SEQ ID NO 148 (designed binder)
chain: B1 chain with T47A, S85R, I87V
notes: FN3 domain

apical domain:HSA (CD71 apical domain [1]): 361
hCD71:HSA [2]: 91.2
Apical domain, RLU (CD71 apical domain [3]): 6.16e+06 RLU
hCD71, RLU [4]: 1.56e+06 RLU
B22: SEQ ID NO 149 (designed binder)
chain: B1 chain with T47Q, H49W
notes: FN3 domain

apical domain:HSA (CD71 apical domain [1]): 299
hCD71:HSA [2]: 175
Apical domain, RLU (CD71 apical domain [3]): 8.37e+06 RLU
hCD71, RLU [4]: 4.91e+06 RLU
B23: SEQ ID NO 165 (designed binder)
chain: B1 chain with T47V, H49Q, S85A, I87W
notes: FN3 domain

apical domain:HSA (CD71 apical domain [1]): 286
hCD71:HSA [2]: 104
Apical domain, RLU (CD71 apical domain [3]): 6.71e+06 RLU
hCD71, RLU [4]: 2.46e+06 RLU
B24: SEQ ID NO 156 (designed binder)
chain: B1 chain with T47F, H49Q, S85A, I87V
notes: FN3 domain

apical domain:HSA (CD71 apical domain [1]): 239
hCD71:HSA [2]: 33.7
Apical domain, RLU (CD71 apical domain [3]): 5.54e+06 RLU
hCD71, RLU [4]: 779000 RLU
B25: SEQ ID NO 154 (designed binder)
chain: B1 chain with T47G, H49W, S85I, I87H
notes: FN3 domain

apical domain:HSA (CD71 apical domain [1]): 342
hCD71:HSA [2]: 186
Apical domain, RLU (CD71 apical domain [3]): 7.2e+06 RLU
hCD71, RLU [4]: 3.91e+06 RLU
B26: SEQ ID NO 198 (designed binder)
chain: B1 chain with T47I, H49E, S85V, I87Y
notes: FN3 domain

apical domain:HSA (CD71 apical domain [1]): 500
hCD71:HSA [2]: 312
Apical domain, RLU (CD71 apical domain [3]): 8.01e+06 RLU
hCD71, RLU [4]: 4.99e+06 RLU
B27: SEQ ID NO 158 (designed binder)
chain: B1 chain with T47I, H49Q, I87V
notes: FN3 domain

apical domain:HSA (CD71 apical domain [1]): 0.8
hCD71:HSA [2]: 21.5
Apical domain, RLU (CD71 apical domain [3]): 98900 RLU
hCD71, RLU [4]: 2.57e+06 RLU
B28: SEQ ID NO 189 (designed binder)
chain: B1 chain with T47Q, H49T, L62P, S69W, H73Q, L79G, L80S, S82V, S85V, I87Y
notes: FN3 domain

apical domain:HSA (CD71 apical domain [1]): 177
hCD71:HSA [2]: 103
Apical domain, RLU (CD71 apical domain [3]): 7.35e+06 RLU
hCD71, RLU [4]: 4.27e+06 RLU
B29: SEQ ID NO 195 (designed binder)
chain: B1 chain with T47I, H49D, A86S
notes: FN3 domain

apical domain:HSA (CD71 apical domain [1]): 420
hCD71:HSA [2]: 241
Apical domain, RLU (CD71 apical domain [3]): 7.21e+06 RLU
hCD71, RLU [4]: 4.14e+06 RLU
B30: SEQ ID NO 169 (designed binder)
chain: B1 chain with T47L, H49L, I87V
notes: FN3 domain

apical domain:HSA (CD71 apical domain [1]): 194
hCD71:HSA [2]: 94.9
Apical domain, RLU (CD71 apical domain [3]): 7.39e+06 RLU
hCD71, RLU [4]: 3.61e+06 RLU
B31: SEQ ID NO 157 (designed binder)
chain: B1 chain with T47L, F88S
notes: FN3 domain

apical domain:HSA (CD71 apical domain [1]): 322
hCD71:HSA [2]: 50.6
Apical domain, RLU (CD71 apical domain [3]): 5.38e+06 RLU
hCD71, RLU [4]: 844000 RLU
B32: SEQ ID NO 186 (designed binder)
chain: B1 chain with T47Q, H49G
notes: FN3 domain

apical domain:HSA (CD71 apical domain [1]): 170
hCD71:HSA [2]: 34
Apical domain, RLU (CD71 apical domain [3]): 6.08e+06 RLU
hCD71, RLU [4]: 1.22e+06 RLU
B33: SEQ ID NO 166 (designed binder)
chain: B1 chain with T47F, H49Q, S85N, I87F
notes: FN3 domain

apical domain:HSA (CD71 apical domain [1]): 263
hCD71:HSA [2]: 27.7
Apical domain, RLU (CD71 apical domain [3]): 4.86e+06 RLU
hCD71, RLU [4]: 513000 RLU
B34: SEQ ID NO 155 (designed binder)
chain: B1 chain with T47W, H49V, S85H, I87R
notes: FN3 domain

apical domain:HSA (CD71 apical domain [1]): 310
hCD71:HSA [2]: 50.3
Apical domain, RLU (CD71 apical domain [3]): 6.95e+06 RLU
hCD71, RLU [4]: 1.13e+06 RLU
B35: SEQ ID NO 183 (designed binder)
chain: B1 chain with T47L, H49D, L79F, L80P, S82M
notes: FN3 domain

apical domain:HSA (CD71 apical domain [1]): 519
hCD71:HSA [2]: 313
Apical domain, RLU (CD71 apical domain [3]): 7.16e+06 RLU
hCD71, RLU [4]: 4.32e+06 RLU
B36: SEQ ID NO 175 (designed binder)
chain: MLPAPKNLVVSRVTEDSARLSWTAPDAAFDSFRISYCETFYHGEAIVLTVPGSERSYDLTGLKPGTEYSVLIHGVKGGLLSSPLIAKFTT
notes: FN3 domain

apical domain:HSA (CD71 apical domain [1]): 209
hCD71:HSA [2]: 14.5
Apical domain, RLU (CD71 apical domain [3]): 2.84e+06 RLU
hCD71, RLU [4]: 197000 RLU
B37: SEQ ID NO 182 (designed binder)
chain: B1 chain with T47D, S85H, I87L
notes: FN3 domain

apical domain:HSA (CD71 apical domain [1]): 369
hCD71:HSA [2]: 44
Apical domain, RLU (CD71 apical domain [3]): 5.46e+06 RLU
hCD71, RLU [4]: 652000 RLU
B38: SEQ ID NO 185 (designed binder)
chain: B1 chain with T47Y, H49G, S85R, I87K
notes: FN3 domain
